Target: the molecule itself
Assay: cryo-EM structure

B1: nuclease-deficient AsCas12f (AsCas12f-D225A) (enzyme, Acidibacillus sulfuroxidans)
chain: MIKVYRYEIVKPLDLDWKEFGTILRQLQQETRFALNKATQLAWEWMGFSSDYKDNHGEYPKSKDILGYTNVHGYAYHTIKTKAYRLNSGNLSQTIKRATDRFKAYQKEILRGDMSIPSYKRDIPLDLIKENISVNRMNHGDYIASLSLLSNPAKQEMNVKRKISVIIIVRGAGKTIMDRILSGEYQVSASQIIHDDRKNKWYLNISYDFEPQTRVLDLNKIMGIALGVAVAVYMAFQHTPARYKLEGGEIENFRRQVESRRISMLRQGKYAGGARGGHGRDKRIKPIEQLRDKIANFRDTTNHRYSRYIVDMAIKEGCGTIQMEDLTNIRDIGSRFLQNWTYYDLQQKIIYKAEEAGIKVIKIDPQYTSQRCSECGNIDSGNRIGQAIFKCRACGYEANADYNAARNIAIPNIDKIIAESIK
With B1 the “stoichiometry N” value was 2.
